# Results as given in the supplement of paper PMC10126150.
# ± gives the standard deviation of the averaged measurements.
# Test system: ATP
# Assay: switch fluorescence ratio, 500 uM ATP over buffer (Cy3 cluster intensity, sum of 5 cycles each) (fold (ratio)); higher = stronger signal-on switching upon ATP binding; sequences stand for … in TCGTCGGCAGCGTCAGATGTGTATAAGAGACAGTTTTTTTTTTTTTTTTTTTTTTTTT…TC
# Conditions: aptamer strand: ATP DNA aptamer (quencher-CACCTGGGGGAGTATTGCGGAGGAAGG + anchor), 100 nM annealed; ATP concentration: 500 uM
# How it was run: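 Between each of five buffer/ATP cycles, the flow-cell was stripped with NaOH and re-annealed. Each cycle imaged Cy3-labelled switching-strand clusters, annealed to 100 nM quencher-labelled ATP aptamer on a modified Illumina MiSeq flow-cell, first in selection buffer and then after 15 min with 500 uM ATP at 22 °C. The fluorescence ratio is summed target-cycle over summed buffer-cycle Cy3 intensity per cluster, averaged per switch-domain sequence, with clusters outside 100-1000 RFU excluded.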
# 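Note: ATP exposure 15 min at 22 °C before imaging.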
row,Sequence,switch fluorescence ratio
1,GGGGTATTGA,1.03 ± 0.037
2,TATTGCGGGG,1.2 ± 0.42
3,CGTGGCCGTT,0.978 ± 0.095
4,TCTTAGACAT,0.9646 ± 0.0028
5,ATGAGAGGGC,1.054 ± 0.0092
6,ACCGGTGTTC,1.021 ± 0.0069
7,AGTCTGAAGG,0.995 ± 0.014
8,GATTTCCCGC,1.26 ± 0.043
9,TTTATGTGGA,1.01 ± 0.027
10,CGAGTTAAAT,1.01 ± 0.037
11,CCCGATTTTG,1.023 ± 0.0069
12,GGACTGAGGA,1.002 ± 0.01
13,CTCCGGGGTT,1.85 ± 0.35
14,CAGTTCCCGC,1.16 ± 0.055
15,AAGGTTATGT,0.991 ± 0.02
16,TGGCCTTCGT,1.13 ± 0.049
17,ATCCCGGGGA,0.962 ± 0.014
18,AATTTTGGTA,0.994 ± 0.016
19,CTGTTTAAGT,1.005 ± 0.0073
20,ATTACTTTTT,1 ± 0.027
21,ACGATGAAGA,1.009 ± 0.0026
22,GCGTTGCAGG,1.02 ± 0.018
23,TTATCTGTTT,1.02 ± 0.028

row,Sequence,switch fluorescence ratio
1,ACGGGTTAGA,1.02 ± 0.036
2,CACGGGGGTG,0.987 ± 0.03
3,CGTCGTTCTC,1.02 ± 0.07
4,CTGACACCCG,1.07 ± 0.039
5,TTGGAAAGGT,1.1 ± 0.16
6,CCCGTGCCTA,1.03 ± 0.064
7,GGGCTAGTGG,1.02 ± 0.036
8,ATTCCAAGTG,1.03 ± 0.056
9,CTGGGTGCCG,0.968 ± 0.084
10,GGGCTAGTTC,1.05 ± 0.077
11,ACGATAGAGG,1.14 ± 0.015
12,TGGTTTTTGG,0.989 ± 0.018
13,AGATATGTTT,0.986 ± 0.025
14,AATTTATAGC,0.977 ± 0.034
15,TCTGGAGTT,1.077 ± 0.005
16,AACTCGTTCT,1.01 ± 0.011
17,GGATGTTATT,0.9915 ± 0.0094
18,CAGTCTACGA,1.03 ± 0.015
19,GGTACTCATC,1.02 ± 0.052
20,TTTTGCTTGA,1.07 ± 0.052
21,GCATAATTTT,1.01 ± 0.028
22,TTGACGGGGG,1.01 ± 0.03
23,GGGTAATGCG,1.06 ± 0.058

row,Sequence,switch fluorescence ratio
1,ATTTACAGGT,1.033 ± 0.0098
2,TCGGAGTGGC,1.2 ± 0.19
3,ATTAAATGGG,0.976 ± 0.036
4,TAGGCGGGTG,1.03 ± 0.023
5,TGATTACTCA,1.03 ± 0.021
6,AGTTTGGTTC,0.9876 ± 0.0078
7,AAAATCGTCT,1.08 ± 0.086
8,TGTCCGCCTG,1.07 ± 0.019
9,GGTTTCCGGC,1.008 ± 0.0087
10,AAGTTTTTGG,1.01 ± 0.03
11,AGCGATTGCC,1.01 ± 0.016
12,TTGCTTGGGC,1.02 ± 0.04
13,TGATGCAGTT,1.01 ± 0.018
14,TGAGATTAGT,1.01 ± 0.026
15,TGAAAAAGTG,0.9941 ± 0.0077
16,CAGAAAGATA,0.997 ± 0.018
17,GAGTGGACGG,0.998 ± 0.018
18,AAGGGGAATA,1.01 ± 0.035
19,GAGTTTTTTG,1.03 ± 0.039
20,CTGGACATGT,0.97556 ± 7.2e-05
21,CGGGGGCAGT,1.006 ± 0.0067
22,AGAAAAGCAG,1.02 ± 0.015
23,TAGAAGGGAT,0.987 ± 0.016

row,Sequence,switch fluorescence ratio
1,GTGAGGGTCG,1.01 ± 0.011
2,TTTATAGGGA,0.987 ± 0.015
3,GTTTGATGCG,0.995 ± 0.022
4,GTGTATAGAG,0.99 ± 0.051
5,GGTGGACCGA,0.984 ± 0.083
6,AGTAAAATGG,1.01 ± 0.038
7,TTCAAATGGA,0.991 ± 0.041
8,TTCATTTACA,1.04 ± 0.033
9,TCGGCTGGGG,0.991 ± 0.014
10,GCTGTAGGTT,1 ± 0.011
11,GGTGGAGAGC,0.99885 ± 0.00089
12,CTGGGTATGT,0.959 ± 0.027
13,TCAATCGACA,1 ± 0.041
14,TTAGTTTAAG,0.999 ± 0.017
15,AAGGGGGTAC,1.38 ± 0.77
16,ACTTTGCTAG,1.03 ± 0.024
17,TTCTTTTATA,0.99 ± 0.04
18,GATGTCGGTC,0.9825 ± 0.0039
19,TGAGACATGC,0.994 ± 0.038
20,TACTCTCCTT,1.09 ± 0.016
21,CCAACGGTGC,2.24 ± 0.095
22,TGTTGATCCT,1.03 ± 0.027
23,CAGGATCATG,1.11 ± 0.15

row,Sequence,switch fluorescence ratio
1,CAAGTTGAAA,0.9693 ± 0.0034
2,TAAAAACGGG,1.05 ± 0.11
3,ATGTGGGCAA,1.08 ± 0.013
4,TGGGTATAT,1.01 ± 0.011
5,CTGGCAGAAA,1.02 ± 0.043
6,TTATGCAAAG,1.1 ± 0.15
7,TAACGCTTAA,1.09 ± 0.033
8,ATATGTCAAG,1.0025 ± 0.00017
9,TTTGTAGAGC,1.05 ± 0.063
10,GAGAGGAAAT,1.004 ± 0.0059
11,CGAAAGAGAG,0.9911 ± 0.0022
12,TTCTTTATGG,0.973 ± 0.028
13,TAGTTTTTTT,0.986 ± 0.022
14,ATATAAGTGA,0.9543 ± 0.0063
15,CACGGATTGC,1.18 ± 0.039
16,TCGGAGTTAG,1.04 ± 0.022
17,CCGCGGCTGG,1.154 ± 0.01
18,TTAAGTGGGG,1.02 ± 0.011
19,GATTACTCTG,1.03 ± 0.026
20,TTTTTGGATA,1.02 ± 0.014
21,TGATTCGTAC,1.03 ± 0.028
22,ACGGTGGGTA,1 ± 0.038
23,GTGTATTATT,0.976 ± 0.02

row,Sequence,switch fluorescence ratio
1,TGATACTGCT,0.961 ± 0.035
2,AATGTGTTG,0.984 ± 0.041
3,TGCGTTGGTG,1.006 ± 0.0061
4,GGATTCTGTG,0.969 ± 0.018
5,TGGTAGGGTA,1.03 ± 0.034
6,AAGGGTATCC,1.02 ± 0.013
7,TATTGATTTA,1.02 ± 0.042
8,TTTGGGGTCA,1 ± 0.016
9,TTATAGGGAG,0.97261 ± 0.00039
10,ATTTCAGCGA,1.09 ± 0.014
11,TAAACAAACG,1.12 ± 0.028
12,GGTCAAAGTG,1.004 ± 0.0058
13,CGAGTAGCGG,1.01 ± 0.036
14,CTGTGTGTTT,0.9781 ± 0.0072
15,GTGTTAAGGA,0.995 ± 0.02
16,TGCCGCAAAA,1.82 ± 0.85
17,AATTGCCGCG,1.02 ± 0.055
18,AATGAAATAG,0.998 ± 0.0061
19,GGGCTAAGGC,0.9923 ± 0.0037
20,TAGCTGTTGT,0.993 ± 0.027
21,ATGAATTCGG,1.01 ± 0.011
22,AGTGCCTATG,0.994 ± 0.019
23,GCGAAATTAA,0.997 ± 0.018

row,Sequence,switch fluorescence ratio
1,GAAAGGGATG,1.03 ± 0.029
2,TTATGTTGTT,1 ± 0.018
3,AACTATGGTC,1.01 ± 0.036
4,GAGAGAGTGA,0.963 ± 0.025
5,TTGGGTTCAC,0.988 ± 0.01
6,CGGTAACAAA,1.01 ± 0.019
7,CTATCATAGT,0.98 ± 0.032
8,ATGAAAAAAG,0.993 ± 0.016
9,GGTGAGGCGC,0.985 ± 0.066
10,TGGGGACCTT,1 ± 0.0032
11,ACACGCAAAA,1.571 ± 0.0081
12,TAAGGTTGGC,1.02 ± 0.04
13,TTTTTATGCA,1.018 ± 0.0031
14,CATGCATGTT,1.01 ± 0.029
15,CGACAAGAAC,2.94 ± 0.18
16,ATCATACGGG,1.03 ± 0.02
17,AGACGTAGTA,1.03 ± 0.014
18,TGGTTTGGTA,0.961 ± 0.011
19,GGTTCGAAGT,1.01 ± 0.048
